Laboratory results as given in paper PMC12106642 (Nature Communications, 2025).
Several values for one entry are separate records, joined by “and”; a condition that tells them apart may be missing. Equal entries are not always repeated.

Molecular target: the molecule itself
Assay: high-speed atomic force microscopy

B1: Human Recombinant ADAR Protein NM_001025107 (ADAR1-p110) (enzyme, UniProt P55265-5 1-931, looked up)
chain: MAEIKEKICDYLFNVSDSSALNLAKNIGLTKARDINAVLIDMERQGDVYRQGTTPPIWHLTDKKRERMQIKRNTNSVPETAPAAIPETKRNAEFLTCNIPTSNASNNMVTTEKVENGQEPVIKLENRQEARPEPARLKPPVHYNGPSKAGYVDFENGQWATDDIPDDLNSIRAAPGEFRAIMEMPSFYSHGLPRCSPYKKLTECQLKNPISGLLEYAQFASQTCEFNMIEQSGPPHEPRFKFQVVINGREFPPAEAGSKKVAKQDAAMKAMTILLEEAKAKDSGKSEESSHYSTEKESEKTAESQTPTPSATSFFSGKSPVTTLLECMHKLGNSCEFRLLSKEGPAHEPKFQYCVAVGAQTFPSVSAPSKKVAKQMAAEEAMKALHGEATNSMASDNQPEGMISESLDNLESMMPNKVRKIGELVRYLNTNPVGGLLEYARSHGFAAEFKLVDQSGPPHEPKFVYQAKVGGRWFPAVCAHSKKQGKQEAADAALRVLIGENEKAERMGFTEVTPVTGASLRRTMLLLSRSPEAQPKTLPLTGSTFHDQIAMLSHRCFNTLTNSFQPSLLGRKILAAIIMKKDSEDMGVVVSLGTGNRCVKGDSLSLKGETVNDCHAEIISRRGFIRFLYSELMKYNSQTAKDSIFEPAKGGEKLQIKKTVSFHLYISTAPCGDGALFDKSCSDRAMESTESRHYPVFENPKQGKLRTKVENGEGTIPVESSDIVPTWDGIRLGERLRTMSCSDKILRWNVLGLQGALLTHFLQPIYLKSVTLGYLFSQGHLTRAICCRVTRDGSAFEDGLRHPFIVNHPKVGRVSIYDSKRQSGKTKETSVNWCLADGYDLEILDGTRGTVDGPRNELSRVSKKNIFLLFKKLCSFRYRRDLLRLSYGEAKKAARDYETAKNYFKKGLKDMGYGNWISKPQEEKNFYLCPV
For B1, the “stoichiometry N” value was 2 and 3 and 4.
